According to article PMC2797393, “Structure of the hDmc1-ssDNA Filament Reveals the Principles of Its Architecture” (PLoS ONE, 2010):

Target: the molecule itself
Assay: negative-stain electron microscopy with single-particle statistical analysis; hDmc1 10 uM without DNA, 25 mM Tris-acetate pH 7.0, 2 mM ATP, 100 mM NaCl, 1 mM DTT, 2 mM CaCl2, 37 C for 30 min then on ice; eigen images and class averages of ring particles

B1: Human Dmc1 (hDmc1) (natural protein)
chain: MKEDQVVAEEPGFQDEEESLFQDIDLLQKHGINVADIKKLKSVGICTIKGIQMTTRRALCNVKGLSEAKVDKIKEAANKLIEPGFLTAFEYSEKRKMVFHITTGSQEFDKLLGGGIESMAITEAFGEFRTGKTQLSHTLCVTAQLPGAGGYPGGKIIFIDTENTFRPDRLRDIADRFNVDHDAVLDNVLYARAYTSEHQMELLDYVAAKFHEEAGIFKLLIIDSIMALFRVDFSGRGELAERQQKLAQMLSRLQKISEEYNVAVFVTNQMTADPGATMTFQADPKKPIGGHILAHASTTRISLRKGRGELRIAKIYDSPEMPENEATFAITAGGIGDAKE
notes: human Dmc1, a protein of 340 amino acid residues: N-terminal domain 1-81 and core ATPase domain 82-340; Probably the whole 340-residue protein, since both domains (1-81 and 82-340) were docked into the maps; Octameric ring without DNA; helical filament of open length on DNA; also called human meiotic recombinase Dmc1; source: E. coli BLR(DE3), purified (ammonium sulfate precipitation, HisTrap HP, …)
With B1 the “stoichiometry N” value was 8.
